These results are taken from paper PMC5320558, “The general PTS component HPr determines the preference for glucose over mannitol” (Scientific Reports, 2017).

In data set [1] the target is Untagged HPr (wild type) (E. coli) (UniProt P0AA04). Kind of data set: SEC; gel filtration on Superose 12 10/300 GL of MtlR alone, HPr alone and their mixture; fractions analysed by SDS-PAGE. On the technique in general: Size exclusion chromatography separates by hydrodynamic size, large species first.
For data set [2] the target is unchanged. Nature of the data set: SPR; HPr immobilised on a CM5 sensor chip, various concentrations of MtlR applied; BIAcore 3000; BIAevaluation, assuming a 1:1 interaction. Background: SPR reads the build-up and loss of mass on a sensor chip optically.
Data set [3] concerns the molecule itself. Nature of the data set: SEC; gel filtration on Superose 12 10/300 GL of MtlR alone, HPr alone and their mixture; fractions analysed by SDS-PAGE.

By stoichiometry N is commonly meant a count of units in the complex or per binding partner. One may read the Kd as a measure of binding affinity in units of concentration. Lower therefore signals tighter binding. “Untagged MtlR (mannitol operon repressor) (from UniProt P0AF10 1-195) (natural protein)”: the stoichiometry N in data set [1] is 1 HPr:MtlR. In addition, the Kd in data set [2] was determined as 62.2 nM.

B1: Untagged MtlR (mannitol operon repressor) (natural protein, E. coli, UniProt P0AF10 1-195, looked up)
chain: MVDQAQDTLRPNNRLSDMQATMEQTQAFENRVLERLNAGKTVRSFLITAVELLTEAVNLLVLQVFRKDDYAVKYAVEPLLDGDGPLGDLSVRLKLIYGLGVINRQEYEDAELLMALREELNHDGNEYAFTDDEILGPFGELHCVAALPPPPQFEPADSSLYAMQIQRYQQAVRSTMVLSLTELISKISLKKAFQK
notes: MtlR, transcriptional repressor of the mtl operon, E. coli; monomer approximately 22.0 kDa; Eluted as a tetramer in gel filtration; source: overexpressed, purified (MonoQ, Superdex 75)
B1: the “stoichiometry N” value in data set [3] came out at 4.
